B1: 1046 (protein)
chain: MQYWQKQLKFTSIILLSGLTLGGITACAEQDIAQLQNVEAEPSPVEQEAQTSLATSFKHPPHEAKPLTWLHAMSGNMSKAGLTKDLEAIAEAGLGGTMLFNVTQGIPLGKVKFNSTEHIDLIGHLAAESQRLGLSFGMHNCDGWTSSGGPWVTPEHSMKQITYNETIVDGGNVNIKLAQPATMLDYYQDIAVIAYPSLATEITDFTVKPKITASDANFDAQIVQNNNLTDYSSITPSNEQPGWLQFSYQQPYTLRLIDMLLHSGRGLNVSLHISDDGKNFKQVDNLTLRRPGKSTYAFDEAFAGYTAKHFRLVSNKVMHIKELRLSSTPSLDNFSGRTAASRSDYQEFEDIGKPSAELVIDPESVINLTASLNSEGQLITTLPAGKWTIMRFGYTSTGAVNIPASREGTGLEVDKFSKAAFKSHYDAYITNVIDKLKVVAPNALYSIEIDSYEVGAQNWTHNYEQLFQAQFGYDLVPFLPLFAGKFVESPTVAEAVLWDTRDLNNKLITENYYGYFRELAHQDGIKTYLEPYGSGPFNELDVASKADLPMGEFWLDNNNFRLSASASAAHIYNKPIVAAEAFTQFPRNNWLFHPAEGKADSDKSWALGVNQHVFHRFAHQANTHVMPGMTMNRWGAHMDRTQTWWTVAGKPWFKYVARGQQLLRTGHNVADVLWFLGDATPTTCPEKDPISAVLPLNINYDCLNSEVLQRLSVEDGKVTLPHGSQYKILVLNNHQTLTLKSLKKIYQLAQQGAVIVGTPVEQLAGRFVSEQQRQELKMMVDYIWSQPTTYNISTKAKTSHGHTGVFPTHEIAKTSKIDWQKIYNEQNWPLDLAIKNADKFYFTHRRSAQYDIYFIFNDSAQAQVFDARFNISGKIPELWDADTGNITQLGAFSDNGQITRVPLKLGAYDSVFVVFEKSSKAVTALKPEFVLSQPELDVVLDAQQQPKVIKTTHEAIEITGAWQVEFDKFYGLDKSFTFEQLIDWKLHPEQTIQDYSGTATYQKTIDVPAELLADNKQIFLDLGKVKVAANVYLNDKLAGSAWHAPYRIDISNFVQAGKNKLTIKVANLWVNRLLADRKLPDTSGFKIARWQNPITPMPQWYVDNQPAPKSERVTFVTQVFMDDNEPRQSSGLIGPVQLSVRSKTQL
modifications: Catenovulum agarivorans
B2: 1063 (protein, listed as Parabacteroides distasonis)
chain: MNNKINDATMRIKQSIYIYAFAALLLGGCKSNNELTIPTNLRTEYLTEPIGLDTSSPRFTWEYSGNEEGFKASRYEVRIGTSPDDLRPYAEGMALKPHTRYYWNVTVWDGEGRPCATSETASFETAKFDPSDWSASWITDHKDKEFEPAPLFRKSFPVGKEVKDARVYVASAGYHELFINGERVGTNYLDPGYTHFDKRILYVTHDVTSLLKQGDNAVAAVLGNGWYNEQSVAVWNFHEARWRDRPRLLCELRITYTDGTTEVIGSDETWKTSTGAYTYNNIYSGDKFDARLEEAGWKTAHFDDSKWEAALPAQAPAPLLVAQQMPGIRITEEVRPVSMKRFSDQLYVYSFPKNMSGLCRLKVKGEAGTRITLKHGELLKKDGRLEQGNINVYYHPVKPDEVFQMDVFTLKGTGEEEIFMPSFSYHGFQYVEVESSRPVTLTEENLTGLFMHTDVRPSGSFACSNPLLNKIWEATMQAYRSNLHSIPTDCPQREKNGWTADAHIAIDLGLLGFDGITLYEKWMDDIIDNQREAGEISGIIPSSGWGYGEWPGPVWDAVMFIIPNALYDYYGESRSIERLYPTMLRYLDYLKTKEKDGYLPFGLGDWVYWKATTNNEYTSTAYYYLDYKLMARFASLLGKDAAPYQEKANTLKSLINQKFFNAETGVYAEGTQTAQALALYLGLVPEGKEQLVADKLREVVAGNNYFLDFGLLGSKTVPAMLTKYGYIEDAMKMITKTEAPSWGYWVETMGYSTLPETWTLSPKFADASLNHVFMGDVSAWMMNQLAGINHDDSAPGFRHIRITPHFVKELDWAKGEYHSVRGRIASEWKREGDKVMLTVTIPADCSADIVVGDQTETVSAGTHTFTYPA
B3: 1015 (protein)
chain: MITIIGLGVEHSERGCVTDNPHPRFSYAVRSDRSDVVVDGARLAVGDWTCEAGDQTAVAYDGKPLEPFTEYHVTLDVSTADGEHAHAETTFETGRLGQGWQGRWISDAGYDFVEKKVSPVPMMFRKPFTCDPTKSVRKARLYATAMGVYDFACDGKRIGDRYFAPGFTSYKTNLQYQTYDVTDMVGAGAVHTLLATVAGGWAVGSFVFTRKNRVSADRQALLAELRIEYTDGSVEVIGTDASWEVSESGPVRMADLYDGETYDAMMDPGADGSRCKDWRHASLENPRSRPRHIEADYGAGVVAHETLSPVSVARRAGGELVYDFGQNLAGVVRMRIANGRAGQTVVVRHAEILNPDGSLNTAFLRTAKATATYRCADADGFPEGVQEYGPRFTYMGFRYVSVRGVAEDDLRIEAVVLHSDLRPIGDFACSDERLNQLQHNIVWGAKSNLMDIPTDCPQRDERMGWTGDIAVFAPTACLNFDMSRFLEKWLRDVKAEQLKTGGIPNTVPVQGYGFPATMPEMAIDWWGDACVLVPWAVYRSSGDATVLHDMYDTMKRYVKACRFWAGLIGFGKSRYIWNTPSMLHFGDWVAPDVPKMSQWQKRAKWTATASLNNTSRTLARVAEVLGYDEDARAYDELADKVADAYCSVLTDGNGRLDNEFQTGYVLPLYLNMFPETVRGNAVDHLVKLIEDNDYCIGTGFPGTPYILFALADNGREDVAYRMLLNTACPSWLYEVGMGATTIWERWDGLDENGECPIGDDGTDLMISYNHYASGAVGAFLYQRVAGIEAIGAAYRSFRVRPVLGGGLTWAKAHVDTPYGRVGSAWSLDGGRFSITVEVPVGTTCELALPDGTTMQLSNGVHTATCEM
modifications: Bifidobacterium moukalabense
B4: 1054 (protein, listed as Streptosporangium roseum)
chain: MEQAVAAALAVTDLRMDGRTEPLGLGESAPRFSWRLAAPGRGRAQSAYRIVVGRECDPLAEGAEVLWDTGEVGSSRTFDIAYEGAELRPRTRYQWRARAADEAGTWGDWSPAHWFETGLGDVTGWTADWIGTPAVPGSQRLPSLENVPRIWAAGPLGPSEARTGGFRTRFTVPGGARPLSAWLVIGGALDPQVHLNGMPVAGEVRDGAFVADAGDLIDSGENVLALRAGAVDGLPGGLCVRLEVVLEGRPALPQLVPVAGESAVTVTSDGRWRAAGEPAPGFEQPGFDDTGWSLAEEVGLHGDPPRGREPVADRPSPYLRREFDVPRPVSRARLYATALGVYELHLNGMRVSADHLAPGWTDYRHRVTYQTYDVTALVAEGGNALGAVLADGWYAGNISWFGSFQYGRRLALRAELEIVHDDGTTTRLRTDSDWRAGSGAIRYADLQNGERQDLAAEPVGWTACGFDDSGWLPAVPVSPPAGRPAAAVAPPVRVHEELAPRAVWESSPGVWIADFGQNVVGWVRLTARAGRDRPVVLRHAEVLDHEGALHLANLRSARATDEFLPRGGAGAETFEPRFTFHGFRYVEVSGLREPLTSDAIRARVAYAAMEPAGEFACSDERLNRLQGNIVRGQRGNFLSIPTDCPQRDERLGWTGDIWAFAPTALFNYDARAFLHSWLTDVVDAQAEDGAVTHVVPDVLSGRGLSPNPREAGSPGWGDAIVMLPWALYRLCGDADAVARYYGPMRRWLAYLDSRSTDGIFPDEGFGDWLSIGADTPKRLVGTAIFALSARQLAELAAALGRADDERACLEVYARVRRAFRAAFVQGPGVVESGTQTAYVLAITAGLLEEAELPRAAARLVRDIEARGGHLSTGFLGTPFLLDALTRSGHLGTAYRLLLQESFPSWLYPVVHGDATTMWERWDGWSHHRGLQDPGMNSFNHYAYGAVGAWMYETIGGLAPASPGYRAIVVRPRPGGELTWARTAYRTRHGRVEIAWRREGGDFTLEVRVPPNTRAEVWVPGGPAGVTESGRPAAESPGVALDRVVDGHAVYEVGSGSYAFHV
B5: 1074 (protein, listed as Actinoplanes sp.)
chain: MKGSFAVLAAALLLMPVSAPTAAAEPAVTLDGAHWIWYPEGDPATSAPAATRYLRRAFTVAASDIATAQLVVTGDDTIDVWVNGVRLAGSPRAADSWKRAVRVDLAGSLHPGSNTVALAARNTGGPAGVLGRLHAGSVDLVTDGSWRAATGVPENWADPAFSDVAWTTAKDLGAYGGGPWGAGVALPDPAAASPVSVTDLTVNRQADPVGVDTPRFGWRLAAGTGGQMQGRYQLTVGSTAGAADVWDSGIVASTASRDIGYSGPALGANRTYFWRVRVWDAQGRPSAWSAGARFDTGIALTAAFVGAPPAGDLSGADWIWYPEGDPATSAPAATRYFRRTVTLATSTTLVVAGDDTADVWVDGTQISASPRVTDSWKTAATVTVPAGTRTIAIAASNTTVGPAGVIAKLGGIVTDGSWRSATAAPGGWQQPGFDDSGWLAAKVLAAYGSGPWGGQVLVPAAAPYLRKGFAVTRPVARARLFATALGLHDTYLNGARVGTERLAPGWTDYTKRVQYRGYDVTAALRLGDNALAAQIGHGWYSGNIGFAGSRRYGTQPWYAAQLIIEYTDGTSATVQTDGSWRTAPGNILGDDLYAGETQDARLIRSGWNTAGFDDSDWVPVTVQNGARPTLVPQVDPGVTVQQELRPVAVTQPKPGVFIADLGQNFTGWDRLRVSGPAGTTVTLRHGEILNADGTLYTANLRAAQATDRFTLAGTGTETFEPRFTVHGYRYVEITGFPGTPDADSLTGLAAWTGGAATGMFTSSDSTLNQVQRAILWGARSNLLSIPTDCPQRDERLGWTGDIAAFVATSTFNFDTYGLLAKFATDLTDAQHSDGAFTDVAPDVLGGAGKAGWGDAGVIVPYTVWQRFGDLAPADRNFAAMARWVDYLRSTAGADLIRNQDTYGDWLNVDDGTGNDLTSTAFFGWSARLVSRMAAATGRTAQAATYGTLADQIAAAFTGRFVHADNTVGTGSETGYVLALAFGLVPGDRVQAVADRLAAKVASRNGHLSVGFMGVENLLPVLADHGHADVAYRILQQPDYPGWGYMIARGATTIWERWDGIRPDGSLQDPGMNSFNHYGLGSVGDWLYREVGGVAPAAPGYAQVLLAPKPGGSLTSASAELTTTFGRVRSAWSRSGSAVTLQVVVATGTTATVRVPGTAVTSAPAEAVPVGGTSYVVGAGSYTFTSTL

Assays:
Assay type in all cases: biochemical, Quillaja saponaria
[1] = Experiment 6-1: screening of rhamnosidases for derhamnosylation of saponins in treated bark extract (2%), QS-17 2310 to QS-18 2164 (PAR %); settings: TBE 2%, pH 7.5, 30 degC, 18 h; TIC peak area ratio percent, LCMS/MS; negative controls 3.061, 2.429
[2] = Experiment 6-1: specificity of rhamnosidases towards other rhamnose residues (C3 saccharide rhamnose, C28 saccharide rhamnose); settings: TBE 2%, pH 7.5, 30 degC, 18 h; LCMS/MS; negative controls 0.18, 0.17
[3] = Experiment 6-1: screening of rhamnosidases for derhamnosylation of saponins in treated bark extract (2%), desglucosyl-QS-17 2134 to QS-21 1988 (PAR %); settings: TBE 2%, pH 7.5, 30 degC, 18 h; TIC peak area ratio percent, LCMS/MS; negative controls 2.719, 2.158
[4] = Experiment 6-1: screening of rhamnosidases for derhamnosylation of saponins in treated bark extract (2%), QS-17 2296 to QS-18 2150 (PAR %); settings: TBE 2%, pH 7.5, 30 degC, 18 h; TIC peak area ratio percent of rhamnosylated starting saponin to derhamnosylated product, LCMS/MS; negative controls 4.876, 5.225

| Molecule | Peak57 (PAR %) [1] [%] | ratio PP/QS-21 [2] | Peak75 (PAR %) [3] [%] | QS-17 (PAR %) [4] [%] |
| --- | --- | --- | --- | --- |
| B1 | 2.480 | 0.13 | 2.446 | 4.051 |
| B2 | 2.473 | 0.17 | 2.240 | 4.201 |
| B3 | 3.048 | 0.15 | 2.969 | 4.132 |
| B4 | 2.487 | 0.17 | 2.160 | 4.348 |
| B5 | 1.681 | 0.18 | 2.312 | 4.443 |

From patent US20240026407A1, “MODIFICATION OF SAPONINS” (GLAXOSMITHKLINE BIOLOGICALS SA, priority 2020, published 2024)
